The values that follow come from PMC9961634.

The target in one test is Hb1 (Oryza sativa) (UniProt O04986). Particulars: cited from earlier work.
In test [1] the target is Beta vulgaris ssp. vulgaris phytoglobin type 1.2 (BvPgb1.2) (Beta vulgaris spp. vulgaris). In words: NMR 15N relaxation (rotational correlation time from R2/R1, ROTDIF, compared with HYDRONMR values for monomeric and dimeric structures); CN-bound BvPgb1.2, 1 mM protein in 50 mM MOPS pH 7.4, 8% D2O, 298 K, 14.1 T; monomer to dimer.
For test [2] the target is unchanged. In words: SEC; analytical size exclusion chromatography of the purified protein samples; conditions not given (ref. 23). Background: In gel filtration, larger molecules generally elute earlier.

pKd: −log10 of the molar value.

A word on the pKd: it is the Kd on a negative log10 scale, so that one unit is a factor of ten. In the case of Hb1 (from UniProt O04986), the negative logarithm of the Kd (pKd) in the test with Hb1 (Oryza sativa) is 4.07.
Usually stoichiometry N stands for the number of molecules, sites or subunits per partner or assembly. As for “Beta vulgaris ssp. vulgaris phytoglobin type 1.2 (BvPgb1.2) (natural protein)”, the stoichiometry N in test [1] and in test [2] was 2 throughout.
